Test results taken from patent US20220016257A1 (Daiichi Sankyo, published 2022).

T1: EC3-deleted human CDH6 (EC3 deletion mutant, on cells) (human, UniProt P55285 54-790)
T1 construct: Full-length human CDH6 lacking EC3; Cloned in p3xFLAG-CMV-9; also called EC3-deleted hCDH6
T1 sequence: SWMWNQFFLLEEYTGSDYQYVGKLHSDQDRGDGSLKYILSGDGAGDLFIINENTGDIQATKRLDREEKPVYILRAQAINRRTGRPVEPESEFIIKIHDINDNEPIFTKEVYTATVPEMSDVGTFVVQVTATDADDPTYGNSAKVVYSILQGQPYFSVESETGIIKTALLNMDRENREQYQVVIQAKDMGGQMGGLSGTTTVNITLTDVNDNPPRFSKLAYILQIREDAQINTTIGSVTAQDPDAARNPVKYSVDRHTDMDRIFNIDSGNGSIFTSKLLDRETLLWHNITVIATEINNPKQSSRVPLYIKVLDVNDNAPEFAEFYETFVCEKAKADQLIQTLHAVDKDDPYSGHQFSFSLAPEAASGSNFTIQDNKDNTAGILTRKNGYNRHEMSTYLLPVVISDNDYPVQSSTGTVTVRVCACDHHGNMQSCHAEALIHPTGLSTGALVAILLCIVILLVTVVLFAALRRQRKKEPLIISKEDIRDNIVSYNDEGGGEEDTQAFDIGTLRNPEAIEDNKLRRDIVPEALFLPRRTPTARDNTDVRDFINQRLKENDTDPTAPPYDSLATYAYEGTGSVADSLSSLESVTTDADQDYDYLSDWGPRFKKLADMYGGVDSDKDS

T2: Recombinant Human CDH6 Fc His chimera (R&D Systems, Inc.) (human, UniProt P55285 54-615)
T2 construct: Bought reagent; Captured on the chip by an anti-His antibody; also called the antigen; not shown: Fc portion of the bought chimera; His tag of the bought chimera
T2 sequence: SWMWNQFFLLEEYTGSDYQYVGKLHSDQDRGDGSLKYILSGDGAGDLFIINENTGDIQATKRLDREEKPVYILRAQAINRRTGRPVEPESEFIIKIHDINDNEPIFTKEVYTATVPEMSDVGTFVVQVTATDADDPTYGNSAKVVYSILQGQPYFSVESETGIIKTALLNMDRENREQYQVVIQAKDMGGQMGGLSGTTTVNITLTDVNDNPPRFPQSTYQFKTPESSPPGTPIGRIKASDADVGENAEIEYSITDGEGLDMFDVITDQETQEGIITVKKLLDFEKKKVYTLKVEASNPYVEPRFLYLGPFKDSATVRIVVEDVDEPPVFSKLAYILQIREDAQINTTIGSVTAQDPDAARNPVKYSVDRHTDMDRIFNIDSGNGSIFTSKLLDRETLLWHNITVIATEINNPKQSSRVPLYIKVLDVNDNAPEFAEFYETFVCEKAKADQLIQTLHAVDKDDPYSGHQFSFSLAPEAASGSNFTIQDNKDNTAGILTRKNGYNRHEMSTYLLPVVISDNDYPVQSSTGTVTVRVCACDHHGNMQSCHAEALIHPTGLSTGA


Experiments:
[1] = target: T1, EC3-deleted human CDH6 (EC3 deletion …); experiment: flow cytometry, 293α cells transiently expressing EC3-deleted hCDH6 (open) against untransfected cells (shaded), APC anti-human IgG F(ab')2
Experimental: The cells were cultured overnight under conditions of 37° C. and 5% CO₂, and thereafter, a cell suspension was prepared. […] Thereafter, the cells were suspended by the addition of each of the 4 humanized hG019 antibodies (clone Nos: H01L02, H02L02, H02L03 and H04L02), which had been prepared in Example 5)-5-3, or the anti-CDH6 antibody NOV0712, which had been prepared in Reference Example 1, or human IgG1 (Calbiochem) as a negative control. The cells were left standing at 4° C. for 1 hour. The cells were washed twice with PBS supplemented with 5% FBS, and then suspended by the addition of APC-anti-human IgG goat F(ab′)2 (Jackson ImmunoResearch Laboratories, Inc.) that had been 500-fold diluted with PBS supplemented with 5% FBS. The cells were left standing at 4° C. for 1 hour. The cells were washed twice with PBS supplemented with 5% FBS, followed by detection using a flow cytometer (Canto II; BD Biosciences). The data was analyzed using FlowJo (TreeStar, Inc.). In the histograms of FIGS. 5-1 to 5-6, the abscissa depicts APC fluorescence intensity indicating the amount of the antibody bound, and the ordinate depicts cell count. […] Fluorescence intensity is enhanced when the antibody binds to full-length hCDH6 or each EC domain deletion mutant on the cell surface. The human IgG1 control binds to none of the transfected cells.

[2] = target: T2, Recombinant Human CDH6 Fc His chimera …; experiment: SPR (Biacore T200), antigen captured by immobilized anti-His antibody, antibody as analyte, steady state affinity model
Experimental: The dissociation constant between the antibody and the antigen (Recombinant Human CDH6 Fc His chimera, R&D Systems, Inc.) was measured by using Biacore T200 (GE Healthcare Biosciences Corp.), according to a capture method, which comprises capturing the antigen as a ligand with the immobilized anti-His antibody and then measuring the dissociation constant using an antibody as an analyte. Approximately 1000 RU of the anti-histidine antibody (His capture kit, GE Healthcare Biosciences Corp.) was covalently bound to sensor chip CM5 (GE Healthcare Biosciences Corp.) by the amine coupling method. The antibody was also immobilized onto reference cells in the same manner as above. HBS-P+(10 mM HEPES pH 7.4, 0.15 M NaCl, 0.05% Surfactant P20) supplemented with 1 mM CaCl₂ was used as a running buffer. The antigen was added onto the anti-histidine antibody-immobilized chip for 60 seconds, and a dilution series solution (0.391 to 100 nM) of the antibody was then added at a flow rate of 30 μl/min for 300 seconds. Subsequently, the dissociation phase was monitored for 600 seconds. As a regeneration solution, a glycine solution (pH 1.5) supplemented with 5 M MgCl₂ was added twice at a flow rate of 10 μl/min for 30 seconds. A Steady State Affinity model in analysis software (BIAevaluation software, version 4.1) was used in data analysis, and the dissociation constant (KD) was calculated.

| Binder | binding result [1] | Kd [2] |
| --- | --- | --- |
| humanized anti-CDH6 antibody H02L02 (antibody, human IgG1, kappa, V domains shown, hH02 heavy chain and hL02 light chain, human IgG1/kappa; also called H02L02 antibody; humanized hG019) VH: EVQLVQSGAEVKKPGASVKVSCKASGYTFTRNFMHWVRQAPGQGLEWMGWIYPGDGETEYNQKFQGRVTITADRSTSTAYMELSSLRSEDTAVYFCARGVYGGFAGGYFDFWGQGTLVTVSS VL: DIQMTQSPSSLSASVGDRVTITCKASQNIYKNLAWYQQKPGKAPKLLIYDANTLQTGVPSRFSGSGSGSDFTLTISSLQPEDFATYFCQQYYSGWAFGQGTKVEIKR | no binding (tested: not given) | 1.1 nM |
| humanized anti-CDH6 antibody H04L02 (antibody, human IgG1, kappa, V domains shown, hH04 heavy chain and hL02 light chain, human IgG1/kappa; also called H04L02 antibody; humanized hG019) VH: QVQLVQSGAEVKKPGASVKVSCKASGYTFTRNFMHWIRQAPGQGLEWMGWIYPGDGETEYAQKFQGRVTLTADRSTSTAYMELSSLRSEDTAVYYCARGVYGGFAGGYFDFWGQGTLVTVSS VL: DIQMTQSPSSLSASVGDRVTITCKASQNIYKNLAWYQQKPGKAPKLLIYDANTLQTGVPSRFSGSGSGSDFTLTISSLQPEDFATYFCQQYYSGWAFGQGTKVEIKR | no binding (tested: not given) | 1.1 nM |

Further lines, results first:

| binding result [1] | Kd [2] | Binder |
| --- | --- | --- |
| no binding (tested: not given) | 1.5 nM | humanized anti-CDH6 antibody H01L02 (antibody, human IgG1, kappa, hH01 heavy chain and hL02 light chain, human IgG1/kappa; also called H01L02 antibody; humanized hG019) heavy: not shown light: DIQMTQSPSSLSASVGDRVTITCKASQNIYKNLAWYQQKPGKAPKLLIYDANTLQTGVPSRFSGSGSGSDFTLTISSLQPEDFATYFCQQYYSGWAFGQGTKVEIKRTVAAPSVFIFPPSDEQLKSGTASVVCLLNNFYPREAKVQWKVDNALQSGNSQESVTEQDSKDSTYSLSSTLTLSKADYEKHKVYACEVTHQGLSSPVTKSFNRGEC |
| no binding (tested: not given) | 1.4 nM | humanized anti-CDH6 antibody H02L03 (antibody, human IgG1, kappa, V domains shown, hH02 heavy chain and hL03 light chain, human IgG1/kappa; also called H02L03 antibody; humanized hG019) VH: EVQLVQSGAEVKKPGASVKVSCKASGYTFTRNFMHWVRQAPGQGLEWMGWIYPGDGETEYNQKFQGRVTITADRSTSTAYMELSSLRSEDTAVYFCARGVYGGFAGGYFDFWGQGTLVTVSS VL: DIQMTQSPSSLSASVGDRVTITCKASQNIYKNLAWYQQKLGEGPKLLIYDANTLQTGVPSRFSGSGSGTDFTLTISSLQPEDFATYYCQQYYSGWAFGQGTKVEIKR |
